Substrate: O=c1[nH]cnc2c([C@@H]3O[C@H](COP(=O)(O)O)[C@@H](O)[C@H]3O)n[nH]c12
Test: pyruvate kinase / lactate dehydrogenase coupled assay, NADH oxidation by UV
Type: biochemical, Streptomyces kaniharaensis
Conditions: 2.5 mM L-aspartate, 0.125 mM GTP

B1: ForA (Streptomyces kaniharaensis) (protein)
chain: MLKAIVGLNWGDEGKGRMVDNLSAEADYTVRYHGGSNAGHTIHTDQGKFKLHSLPSSVLHPTVTGVLGPGMTVDVEGFLAEFEALREHGVTADRLLVADAASVCFPFHRDLDGAEEERLSDGRYGSTRRGISPAYGDRVMKKTLLVRELFDRENLPARLAAVLDWANERIVRIYGGAPLSLDEVTRWAADVAARLEPHVVDATALLGKALDDGATVIAEGQLGALKDLYYGIYPFTTSSTCLAGHAPVGIGVPWARVDRTIGVTKAFSSCVGAGPFVTEFDEERADRLRRQWGEYGSTTNRPRRLGAFDAVATRYGVRVQGADEVAITNLDQLSGTGELDLCVAYERAGRTVREFSPRPAELAASTPVHETLSGWDEDISGVRTYEQLPAGAREYVEAIQELLGVPVRHVSVGSHRDALIEIK
Km: 74 ± 25 µM | kcat: 0.3 ± 0.033 s⁻¹

— paper PMC5467530
